Experimental findings from US20230159643A1 (H LUNDBECK A S, published 2023) are described below.

One test addresses T1, Sortilin SORTECD_HIS (human, UniProt Q99523 78-755).
T1 construct: also called Sortilin-ECD-His; HIS-tagged Sortilin ECD
T1 sequence: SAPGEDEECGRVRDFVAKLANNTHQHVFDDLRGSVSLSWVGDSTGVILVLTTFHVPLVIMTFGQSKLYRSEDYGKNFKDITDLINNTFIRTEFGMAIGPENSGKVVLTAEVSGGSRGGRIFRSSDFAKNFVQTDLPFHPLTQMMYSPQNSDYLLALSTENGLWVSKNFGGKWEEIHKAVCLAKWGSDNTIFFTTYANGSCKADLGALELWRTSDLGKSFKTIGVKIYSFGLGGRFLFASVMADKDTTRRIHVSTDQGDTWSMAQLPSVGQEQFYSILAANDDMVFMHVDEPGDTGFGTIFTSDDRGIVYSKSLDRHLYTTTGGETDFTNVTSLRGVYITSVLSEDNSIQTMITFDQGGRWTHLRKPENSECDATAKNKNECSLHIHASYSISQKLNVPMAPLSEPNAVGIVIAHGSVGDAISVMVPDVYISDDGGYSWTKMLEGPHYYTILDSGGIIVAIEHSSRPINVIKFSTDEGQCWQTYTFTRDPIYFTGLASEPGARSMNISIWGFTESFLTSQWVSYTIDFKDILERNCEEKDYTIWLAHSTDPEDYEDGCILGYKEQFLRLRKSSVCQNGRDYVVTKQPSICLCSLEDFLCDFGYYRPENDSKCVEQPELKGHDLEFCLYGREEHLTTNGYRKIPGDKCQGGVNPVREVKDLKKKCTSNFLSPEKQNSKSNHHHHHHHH
As to the kind of experiment: HTRF: displacement of PGRN binding to His-tagged Sortilin ECD. On the procedure:
Dose-response evaluation of antibodies was performed with ten concentrations covering 50 pM to 1 μM in a 3-fold dilution curve. The half-maximal inhibitory concentration (IC50) values were calculated by non-linear regression using sigmoidal concentration response (variable slope) in XLfit 4 (IDBS, UK).
Experiments were performed in assay buffer (50 mM Phosphate, pH 7.0, 0.1% BSA) in a total volume of 20 μl in a Greiner 384 well, white, low volume microtiter plate, (784075, Greiner).
(In general: Time-resolved FRET reads energy transfer from a long-lived donor to a nearby acceptor.)

In test [1] the target is T2, Sortilin SORTECDBAP_hB06-10 (human/tetraodon chimera).
T2 construct: Shuffle construct
T2 chain: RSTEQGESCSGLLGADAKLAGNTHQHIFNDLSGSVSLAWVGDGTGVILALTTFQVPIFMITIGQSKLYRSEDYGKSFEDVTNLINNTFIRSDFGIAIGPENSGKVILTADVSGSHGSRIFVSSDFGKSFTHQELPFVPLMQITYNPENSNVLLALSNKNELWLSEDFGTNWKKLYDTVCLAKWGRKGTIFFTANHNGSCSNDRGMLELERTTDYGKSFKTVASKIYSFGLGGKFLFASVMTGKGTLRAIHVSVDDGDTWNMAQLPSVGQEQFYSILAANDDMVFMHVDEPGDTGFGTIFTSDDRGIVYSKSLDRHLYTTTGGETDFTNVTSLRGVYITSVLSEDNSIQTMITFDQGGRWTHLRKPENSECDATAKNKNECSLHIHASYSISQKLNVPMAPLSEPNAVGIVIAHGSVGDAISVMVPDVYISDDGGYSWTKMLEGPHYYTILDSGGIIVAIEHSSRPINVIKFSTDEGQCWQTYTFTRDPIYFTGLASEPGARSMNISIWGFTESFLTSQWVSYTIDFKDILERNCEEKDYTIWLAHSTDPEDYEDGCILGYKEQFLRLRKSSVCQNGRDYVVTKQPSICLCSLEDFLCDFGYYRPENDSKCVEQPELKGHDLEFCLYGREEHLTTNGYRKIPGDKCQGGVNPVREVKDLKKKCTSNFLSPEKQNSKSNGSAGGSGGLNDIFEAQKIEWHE
As to the kind of experiment: BLI Octet 384RED, antibody on Protein A sensor, Sortilin construct in solution. On the procedure: Binding kinetics of anti-Sortilin HuMab antibodies to Sortilin were determined using Octet 384RED (Fortebio, Menlo Park, USA). HuMab solutions of 2 μg/ml were made by dilution in sample diluent (ForteBio, art. No. 18-5028). Prot A sensors (ForteBio, art. no. 18-0004) were prewetted with kinetics buffer (1:10 sample diluent in PBS) for at least 600 seconds. Subsequently sensors were immobilized with HuMab solution for 600 seconds. A baseline response was obtained by dipping in kinetics buffer for 120 seconds. Association of SORTECD constructs was performed during a 1000 seconds incubation. This was followed by dissociation in kinetics buffer for 100 seconds. After dissociation, sensors were regenerated (10 mM Glycine pH 1.0) and neutralized (kinetics buffer) 3 times for 5 seconds. […] A molecular weight of 76.8 kDA was used for SORTECDHis. Data was fitted with ForteBio Analysis 6.4 software, using a global full fit.

B1: 1320 (antibody, V domains shown)
VH: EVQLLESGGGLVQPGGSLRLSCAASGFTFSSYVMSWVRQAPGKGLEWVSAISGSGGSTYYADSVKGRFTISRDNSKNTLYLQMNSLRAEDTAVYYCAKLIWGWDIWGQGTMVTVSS
VL: EIVLTQSPATLSLSPGERATLSCRASQSVSSYLAWYQQRPGQAPRLLIYDASNRATGIPARFSGSGSGTDFTLSISSLEPEDFAVYYCQQRTNWSITFGQGTRLEIK
notes: also called IgG1-6003-1320; Antibody 1320
The IC50 is the concentration needed to halve the response being measured. A low value points to inhibition by little substance. The EC50 is the concentration giving half of the maximal effect. Consider B1, for which, in the test with Sortilin SORTECD_HIS, the IC50 turned out to be 32 nM. This molecule registered an EC50 in test [1] of 0.0554 µg/mL.
